Data published in patent publication US20160145343A1 (UNIVERSITY OF PITTSBURGH OF THE COMMONWEALTH SYSTEM OF …, published 2016).
Where no end group is shown, it is not given here. The star is where a group is joined. αGalNAc = CC(=O)N[C@@H]1[C@@H](O)[C@@H](O)[C@@H](CO)O[C@@H]1*; Galβ1‑3GalNAc = TF-antigen

Key:
[1] = molecular target: T1, SEQ ID NO: 346 glycopeptide with TF-antigen at Thr9; assay: ELISA on coated glycopeptide, antibody 0.01 mg/ml, mean of 3
T1 construct: also called T9^TF
T1 peptide: HGVTSAPDT(Galβ1‑3GalNAc)RPAPGSTAPP
Excerpt: (§1) Selected antibodies from Table 1 were further characterized for binding to synthetic MUC1 glycopeptides that were synthesized with the GalNac or GaNac-Gal carbohydrates on various serines and threonines along the MUC1 tandem repeat. If placed within the specific epitope recognized by an antibody, the antibody would not bind that particular glycopeptide.

[2] = molecular target: T2, SEQ ID NO: 346 glycopeptide with TF-antigen at Thr4 and Thr9; assay: as above
T2 construct: also called T4^TF/T9^TF
T2 peptide: HGVT(Galβ1‑3GalNAc)SAPDT(Galβ1‑3GalNAc)RPAPGSTAPP
Excerpt: as §1

[3] = molecular target: T3, SEQ ID NO: 346 glycopeptide with TF-antigen at Ser5 (not fully specified (residue 5)); assay: as above
T3 construct: also called S5^TF
T3 peptide: HGVTSAPDTRPAPGSTAPP
Excerpt: as §1

[4] = molecular target: T4, SEQ ID NO: 346 glycopeptide with TF-antigen at Thr16; assay: as above
T4 construct: also called T16^TF
T4 peptide: HGVTSAPDTRPAPGST(Galβ1‑3GalNAc)APP
Excerpt: as §1

[5] = molecular target: T5, SEQ ID NO: 346 glycopeptide with TF-antigen at Thr4; assay: as above
T5 construct: also called T4^TF
T5 peptide: HGVT(Galβ1‑3GalNAc)SAPDTRPAPGSTAPP
Excerpt: as §1

[6] = molecular target: T6, SEQ ID NO: 346 glycopeptide with Tn-antigen at Thr4, Thr9 and Thr16; assay: as above
T6 construct: also called T4^Tn/T9^Tn/T16^Tn
T6 peptide: HGVT(αGalNAc)SAPDT(αGalNAc)RPAPGST(αGalNAc)APP
Excerpt: as §1

[7] = molecular target: T7, 100 aa-long synthetic MUC1 peptide (…)5; assay: ELISA titration on coated 100-mer peptide, EC50 approximated
T7 construct: also called 100-mer; vaccine 100-mer peptide
Excerpt: Heavy and light chains of antibodies reactive against MUC1 were generated from plasma of individuals vaccinated with a 100 aa-long synthetic MUC1 peptide (100-mer) representing the unglycosylated tumor associated MUC1 antigen (Kimura et al., 2013, Cancer Prev. Res. (Phila.), 6:18-26). Binding of monoclonal antibodies produced by combinatorial pairing of chains was characterized by ELISA using the vaccine 100-mer peptide consisting of the following sequence ([…])₅ (SEQ ID NO: 2). Briefly, 96-well high-binding ELISA plates were coated with 50 μl of the peptide diluted in carbonate buffer at 2 μg/ml. The wells were washed then blocked with 5% fat-free milk in phosphate-buffered saline (PBS). Antibodies were diluted in 5% milk in PBS with 0.1% TWEEN 20 (PBS-T) and then added to the peptide-coated, blocked wells and incubated at 37° C. for 2 hours, after which the wells were washed. Binding of antibody was probed with an anti-human IgG goat antibody conjugated to horseradish peroxidase (HRP), and signal was detected with 3,3′,5,5′-tetramethylbenzidine (TMB) substrate, which was neutralized with an acid, then the 450 nm absorbance was read. […] Additionally, the EC₅₀ of each antibody was approximated by ELISA titration (Table 1).

[8] = molecular target: T8, Synthetic peptide (GVTSAPDTRPAPGSTAPPAH)2; assay: ELISA on coated peptide, antibody 0.01 mg/ml, mean of 3
T8 peptide: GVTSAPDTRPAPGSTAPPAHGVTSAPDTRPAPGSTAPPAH
Excerpt: as §1

[9] = molecular target: T9, Synthetic peptide HGVTSAPDTRPAPGSTAPP; assay: as above
T9 construct: Unglycosylated; also called 346; MUC1 repeat
T9 peptide: HGVTSAPDTRPAPGSTAPP
Excerpt: as §1

B1: M7 (antibody, human IgG1, kappa, V domains shown)
VH: EVQLVESGGGLVQPGGSLRLSCAASGFTVSSNYMSWVRQAPGKGLEWVSVIYSGGSTYYADSVKGRFTISRDNSKNTLYLQMNSLRAEDTAVYYCARGSTNTYYYDSSGHPWGQGTMVTVSS
VL: DIVMTQSPLSLPATPGEPASISCRSSQSLLHSNGYTYLDWYLQKPGQSPQVLIYLASNRASGVPDRFSGSGSGTNFTLKISRVEAEDVGLFYCMQALQTPQTFGQGTKLEIKR
notes: Human IgG
[1]
  ELISA absorbance at 450 nm: 0.1 absorbance
[2]
  ELISA absorbance at 450 nm: 0.1 absorbance
[3]
  ELISA absorbance at 450 nm: 0.1 absorbance
[4]
  ELISA absorbance at 450 nm: 0.1 absorbance
[5]
  ELISA absorbance at 450 nm: 0.1 absorbance
[6]
  ELISA absorbance at 450 nm: 0.1 absorbance
[7]
  EC50: 0.011 µg/mL
[8]
  ELISA absorbance at 450 nm: 3.5 absorbance
[9]
  ELISA absorbance at 450 nm: 0.1 absorbance
